Patent publication US20250154283A1 (published 2025)

T1: biotinylated human VWF cysteine knot (CK) domain construct (human, biotin on the in vitro biotinylation tag (residue not stated); one N-glycan)
T1 construct: Disulfide-linked homodimer; also called biotinylated human VWF CK domain; human VWF CK domain construct
T1 chain: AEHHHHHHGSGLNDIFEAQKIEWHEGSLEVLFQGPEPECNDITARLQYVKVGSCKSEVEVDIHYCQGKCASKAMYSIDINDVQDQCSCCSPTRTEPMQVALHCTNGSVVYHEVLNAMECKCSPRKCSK

B1: Lib4_P2_A1_scFv (scFv, not shown: small tags and cut ends)
scFv: QVQLQESGPGLVKPSQTLSLTCTVSGASFGDNYWSWIRQPPGKGLEWIGYIDTSGSSDYNPSLKSRVTMSVDTSKNQFSLKVNSVTAADTAVYYCARVSWGYYAMDVWGQGTTVTVSSSGGSTITSYNVYYTKLSSSGTEIVMTQSPATLSLSPGERATLSCRASQGISGRLAWYQQKPGQAPRLLIYDVSTRATGIPARFSGSGSGTDFTLTISSLEPEDFAVYYCQQYDTSAPLTFGGGTKVEIK
B2: Lib4_P2_B4_scFv (scFv, not shown: small tags and cut ends)
scFv: QVQLQESGPGLVKPSQTLSLTCTVSGASLGDQYWSWIRQPPGKGLEWIGYIHPSGDFDYNPSLKSRVTMSVDTSKNQFSLKVNSVTAADTAVYYCARHYSSSWYGTWYFDLWGRGTLVTVSSSGGSTITSYNVYYTKLSSSGTEIVMTQSPATLSLSPGERATLSCRASQNIGTNLAWYQQKPGQAPRLLIYDASVRAAGIPARFSGSGSGTDFTLTISSLEPEDFAVYYCQQSLTTPLTFGGGTKVEIK
B3: Lib1_P1_C6_scFv (scFv, not shown: small tags and cut ends)
scFv: QVQLVQSGAEVKKPGASVKVSCKVSGYTFASHYIHWVRQAPGKGLEWMGGMDPATGQTIYAQKFQGRVTMTEDTSTDTAYMELSSLKSEDTAVYYCAKGDRSSWYEVLSFQHWGQGTLVTVSSSGGSTITSYNVYYTKLSSSGTDIQMTQSPSSVSASVGDRVTITCRASQGISTDLAWYQQKPGKAPKLLIYDASILQRGVPSRFSGSGSGTDFTLTISSLQPEDFANYYCQQVRTYPFTFGGGTKVEIK
B4: 1081_Lib8_scFv (scFv, not shown: small tags and cut ends)
scFv: EVQLVESGGGLVQPGRSLRLSCAASGFNFHNYDMHWVRQAPGKGLEWVSAISGGAVSTDYADSVEGRFTISRDNAKNSLYLQMNSLRAEDTAVYYCARSSWYGGQIDFWGQGTLVTVSSSGGSTITSYNVYYTKLSSSGTDIQMTQSPSSLSASVGDRVTITCRASESVSSWLAWYQQKPGKAPKLLIYGASTLEGGVPSRFSGSGSGTDFTLTISSLQPEDVATYYCQQAYRTPVTFGGGTKVEIK
B5: Lib8_P4_C10_scFv (scFv, not shown: small tags and cut ends)
scFv: EVQLVESGGGLVQPGRSLRLSCAASGFNFHNYDMHWVRQAPGKGLEWVSAISGSSDTMDYADSVEGRFTISRDNAKNSLYLQMNSLRAEDTAVYYCVRASWYGTFFDYWGQGTLVTVSSSGGSTITSYNVYYTKLSSSGTDIQMTQSPSSLSASVGDRVTITCRASQDISGWLAWYQQKPGKAPKLLIYAASSLQDGVPSRFSGSGSGTDFTLTISSLQPEDVATYYCQQSYRIPSTFGGGTKVEIK
B6: 2738_Lib1_scFv (scFv, not shown: small tags and cut ends)
scFv: QVQLVQSGAEVKKPGASVKVSCKVSGYTLTDLPIHWVRQAPGKGLEWMGGINPFLGTTIYAQKFQGRVTMTEDTSTDTAYMELSSLKSEDTAVYYCARGVDMLATARDYYYMAIWGKGTTVTVSSSGGSTITSYNVYYTKLSSSGTDIQMTQSPSSVSASVGDRVTITCRASQSIGNDLAWYQQKPGKAPKLLIYGASMRATGVPSRFSGSGSGTDFTLTISSLQPEDFANYYCQQYASDPLTFGGGTKVEIK
B7: Lib1_P1_E9_scFv (scFv, not shown: small tags and cut ends)
scFv: QVQLVQSGAEVKKPGASVKVSCKVSGYTFTSHIIHWVRQAPGKGLEWMGGMNPYSNKAIYAQKFQGRVTMTEDTSTDTAYMELSSLKSEDTAVYYCARDASDYGDYGYYYYYMDVWGKGTTVTVSSSGGSTITSYNVYYTKLSSSGTDIQMTQSPSSVSASVGDRVTITCRASQYIGNDLAWYQQKPGKAPKLLIYEASQRPSGVPSRFSGSGSGTDFTLTISSLQPEDFANYYCQQQYNYPLTFGGGTKVEIK
B8: 3964_Lib4_scFv (scFv, not shown: small tags and cut ends)
scFv: QVQLQESGPGLVKPSQTLSLTCTVSGASISTHSWSWIRQPPGKGLEWIGYINPSGDIDYNPSLKSRVTMSVDTSKNQFSLKVNSVTAADTAVYYCARGRTGFDSSGFVVGAFDIWGQGTMVTVSSSGGSTITSYNVYYTKLSSSGTEIVMTQSPATLSLSPGERATLSCRASQNVNDNLAWYQQKPGQAPRLLIYDASTRPTGIPARFSGSGSGTDFTLTISSLEPEDFAVYYCQQYLTIPRTFGGGTKVEIK
B9: Lib1_P1_D1_scFv (scFv, not shown: small tags and cut ends)
scFv: QVQLVQSGAEVKKPGASVKVSCKVSGDTFTDRYIHWVRQAPGKGLEWMGGINTIFGTAIYAQKFQGRVTMTEDTSTDTAYMELSSLKSEDTAVYYCAREGATVSTNFDYWGQGTLVTVSSSGGSTITSYNVYYTKLSSSGTDIQMTQSPSSVSASVGDRVTITCRASQDIRKSLAWYQQKPGKAPKLLIYDISNRPSGVPSRFSGSGSGTDFTLTISSLQPEDFANYYCQQGYSAPYGFGGGTKVEIK
B10: 4166_Lib4_scFv (scFv, not shown: small tags and cut ends)
scFv: QVQLQESGPGLVKPSQTLSLTCTVSGESFSGHFWSWIRQPPGKGLEWIGYISQSGRTDYNPSLKSRVTMSVDTSKNQFSLKVNSVTAADTAVYYCARTLPRIQLWSPRGAFDIWGQGTMVTVSSSGGSTITSYNVYYTKLSSSGTEIVMTQSPATLSLSPGERATLSCRASQSLGRSLAWYQQKPGQAPRLLIYDASHRATGIPARFSGSGSGTDFTLTISSLEPEDFAVYYCQQYVSYPLTFGGGTKVEIK
B11: 3552_Lib8_scFv (scFv, not shown: small tags and cut ends)
scFv: EVQLVESGGGLVQPGRSLRLSCAASEFTFGDYDMHWVRQAPGKGLEWVSAISSSGSNRDYADSVEGRFTISRDNAKNSLYLQMNSLRAEDTAVYYCARDAWFGDAFDIWGQGTMVTVSSSGGSTITSYNVYYTKLSSSGTDIQMTQSPSSLSASVGDRVTITCRASESVSSWLAWYQQKPGKAPKLLIYGASTLEGGVPSRFSGSGSGTDFTLTISSLQPEDVATYYCQQSYSFPDFGGGTKVEIK
B12: 4142_Lib1_scFv (scFv, not shown: small tags and cut ends)
scFv: QVQLVQSGAEVKKPGASVKVSCKVSGYPFTSSGIHWVRQAPGKGLEWMGGVIPLFGTANYAQKFQGRVTMTEDTSTDTAYMELSSLKSEDTAVYYCARIRVSSGWYRDYGMDVWGQGTTVTVSSSGGSTITSYNVYYTKLSSSGTDIQMTQSPSSVSASVGDRVTITCRASQDITNDLAWYQQKPGKAPKLLIYDASRLQSGVPSRFSGSGSGTDFTLTISSLQPEDFANYYCQQTFTTPLTFGGGTKVEIK
B13: 4029_Lib1_scFv (scFv, not shown: small tags and cut ends)
scFv: QVQLVQSGAEVKKPGASVKVSCKVSGYPFTSSGIHWVRQAPGKGLEWMGGVIPLFGTANYAQKFQGRVTMTEDTSTDTAYMELSSLKSEDTAVYYCARIRVSSGWYRDYGMDVWGQGTTVTVSSSGGSTITSYNVYYTKLSSSGTDIQMTQSPSSVSASVGDRVTITCRASQSIGDFLAWYQQKPGKAPKLLIYDASHLQTGVPSRFSGSGSGTDFTLTISSLQPEDFANYYCQQTSTIPPTFGGGTKVEIK
B14: Lib4_P2_A5_scFv (scFv, not shown: small tags and cut ends)
scFv: QVQLQESGPGLVKPSQTLSLTCTVSGSSISSSSDYWSWIRQPPGKGLEWIGYIDISGDADYNPSLKSRVTMSVDTSKNQFSLKVNSVTAADTAVYYCARHLSSGWYGTYYFDYWGQGTLVTVSSSGGSTITSYNVYYTKLSSSGTEIVMTQSPATLSLSPGERATLSCRASQNIHSNLAWYQQKPGQAPRLLIYDASSRATGIPARFSGSGSGTDFTLTISSLEPEDFAVYYCQQGYTKPLTFGGGTKVEIK

Biological target: T1, biotinylated human VWF cysteine knot …
Experiment: SPR, scFv captured on anti-SV5, pH 7.4
Excerpt: Briefly, a sensor chip was activated and coupled with an anti-SV5 mouse monoclonal antibody using amine coupling. The soluble scFvs in crude yeast supernatants were printed on the anti-SV5 lawn. […] From the measured association (kₒₙ) and dissociation (koff) rate constants, an apparent equilibrium dissociation constant (Kd=koff/kₒₙ) was estimated. Due to the dimeric state of the CK construct and consequent possibility for simultaneous binding of captured scFv to both monomers in the CK dimer, the SPR setup was expected to overestimate the binding affinity.

Binding result, binds:
B1
B2
B3
B4
B5
B6
B7
B8
B9
B10
B11
B12
B13
B14
